From paper PMC12757075 (2026) come the findings set out here.

This experiment has as its target actin filament barbed end (Oryctolagus cuniculus, UniProt P68135). Kind of experiment: pyrene-actin barbed-end elongation kinetic assay.

B1: vinculin V1ab4 (protein)
chain: MPVFHTRTIESILEPVAQQISHLVIMHKEGEVHGKAIPDLTAPVAAVQAAVSNLVRVGKETVQTTEDQILKRDMPPAFIKVENACTKLVQAAQMLQSDPYSVPARDYLIHGSEGILSGTSDLLLTFDEAEVRKIIRVCKGILEYLTVAEVVETMEDLVTYTKNLGPGMTKMAKMIDERQQELTHQEHRVMLVNSMNTVKELLPVLISAMKIFVTTKNSKNQGIEEALKNRNFTVEKMSAEINEIIRVLQLTSWDEDAWASKDTEAMKRALASIDSKLNQAKGWLRDPSASPGDAGEQAIRQILDEAGKVGELCAGKERREILGTCKMLGQMTDQVADLRARGQGSSPVAMQKAQQVSQGLDVLTAKVENAARKLEAMTNSKQSIAKKIDAAQNWLADPNGGPEGEEQIRGALAEARKIAELCDDPKERDDILRSLGEISALTSKLADLRRQGKGDSPEARALAKQVATALQNLQTKTNRAVANSRPAKAAVHLEGKIEQAQRWIDNPTVDDRGVGQAAIRGLVAEGHRLANVMMGPYRQDLLAKCDRVDQLTAQLADLAARGEGESPQARALASQLQDSLKDLKARMQEAMTQEVSDVFSDTTTPIKLLAVAATAPPDAPNREEVFDERAANFENHSGKLGATAEKAAAVGTANKSTVEGIQASVKTARELTPQVVSAARILLRNPGNQAAYEHFETMKNQWIDNVEKMTGLVDEAIDTKSLLDASEEAIKKDLDKCKVAMANIQPQMLVAGATSIARRANRILLVAKREVEISKDPKFREAVKAASDELSKTISPMVMDAKAVAGNISDPGLQKSFLDSGYRILGAVAKVREAFQPQEPDFPPPPPDLEQLRLTDELAPPKPPLPEGEVPPPRPPPPEEKDEEFPEQKAGEVINQPMMMAARQLHDEARKWSSKPGIPAAEVGIGVVAEADAADAAGFPVPPDMEDDYEPELLLMPSNQPVNQPILAAAQSLHREATKWSSKGNDIIAAAKRMALLMAEMSRLVRGGSGTKRALIQCAKDIAKASDEVTRLAKEVAKQCTDKRIRTNLLQVCERIPTISTQLKILSTVKATMLGRTNISDEESEQATEMLVHNAQNLMQSVKETVREAEAASIKIRTDAGFTLRWVRKTPWYQ
By Kd is commonly meant the free concentration of one partner at which half of the binding sites on the other are occupied at equilibrium, for simple one-to-one binding. B1: the equilibrium dissociation constant (Kd) is approximately 1260 nM.
